Among the data in patent US20140087995A1 (published 2014) are IC50 values, retold here.

To fix the notation:
B1: N^ε1-[2-[2-[2-[[(4S)-4-carboxy-4-(19-carboxynonadecanoylamino)butanoyl]amino]ethoxy]ethoxy]acetyl]-[Arg17,Pro21,Pro27,Glu35]-h-amylin (peptide)
peptide: K([AEEA-γGlu-C20 diacid])CNTATCATQRLANFLRHSSPNFGAIPSSTNVGSETY-NH2
modifications: disulfide 2-7; N-terminus assumed
SMILES: CC[C@H](C)[C@H](NC(=O)[C@H](C)NC(=O)CNC(=O)[C@H](Cc1ccccc1)NC(=O)[C@H](CC(N)=O)NC(=O)[C@@H]1CCCN1C(=O)[C@H](CO)NC(=O)[C@H](CO)NC(=O)[C@H](Cc1c[nH]cn1)NC(=O)[C@H](CCCNC(=N)N)NC(=O)[C@H](CC(C)C)NC(=O)[C@H](Cc1ccccc1)NC(=O)[C@H](CC(N)=O)NC(=O)[C@H](C)NC(=O)[C@H](CC(C)C)NC(=O)[C@H](CCCNC(=N)N)NC(=O)[C@H](CCC(N)=O)NC(=O)[C@@H](NC(=O)[C@H](C)NC(=O)[C@@H]1CSSC[C@H](NC(=O)[C@@H](N)CCCCNC(=O)COCCOCCNC(=O)CC[C@H](NC(=O)CCCCCCCCCCCCCCCCCCC(=O)O)C(=O)O)C(=O)N[C@@H](CC(N)=O)C(=O)N[C@@H]([C@@H](C)O)C(=O)N[C@@H](C)C(=O)N[C@@H]([C@@H](C)O)C(=O)N1)[C@@H](C)O)C(=O)N1CCC[C@H]1C(=O)N[C@@H](CO)C(=O)N[C@@H](CO)C(=O)N[C@H](C(=O)N[C@@H](CC(N)=O)C(=O)N[C@H](C(=O)NCC(=O)N[C@@H](CO)C(=O)N[C@@H](CCC(=O)O)C(=O)N[C@H](C(=O)N[C@@H](Cc1ccc(O)cc1)C(N)=O)[C@@H](C)O)C(C)C)[C@@H](C)O
notes: also called compound 26
B2: N^ε1-[(4S)-4-carboxy-4-[[(4S)-4-carboxy-4-(19-carboxynonadecanoylamino)butanoyl]amino]butanoyl]-[Asp14,Arg17,Pro21,Pro26,Asp35]-h-amylin (peptide)
peptide: K([γGlu-γGlu-C20 diacid])CNTATCATQRLADFLRHSSPNFGAPLSSTNVGSDTY-NH2
modifications: disulfide 2-7; N-terminus assumed
SMILES: CC(C)C[C@H](NC(=O)[C@H](CCCNC(=N)N)NC(=O)[C@H](CCC(N)=O)NC(=O)[C@@H](NC(=O)[C@H](C)NC(=O)[C@@H]1CSSC[C@H](NC(=O)[C@@H](N)CCCCNC(=O)CC[C@H](NC(=O)CC[C@H](NC(=O)CCCCCCCCCCCCCCCCCCC(=O)O)C(=O)O)C(=O)O)C(=O)N[C@@H](CC(N)=O)C(=O)N[C@@H]([C@@H](C)O)C(=O)N[C@@H](C)C(=O)N[C@@H]([C@@H](C)O)C(=O)N1)[C@@H](C)O)C(=O)N[C@@H](C)C(=O)N[C@@H](CC(=O)O)C(=O)N[C@@H](Cc1ccccc1)C(=O)N[C@@H](CC(C)C)C(=O)N[C@@H](CCCNC(=N)N)C(=O)N[C@@H](Cc1c[nH]cn1)C(=O)N[C@@H](CO)C(=O)N[C@@H](CO)C(=O)N1CCC[C@H]1C(=O)N[C@@H](CC(N)=O)C(=O)N[C@@H](Cc1ccccc1)C(=O)NCC(=O)N[C@@H](C)C(=O)N1CCC[C@H]1C(=O)N[C@@H](CC(C)C)C(=O)N[C@@H](CO)C(=O)N[C@@H](CO)C(=O)N[C@H](C(=O)N[C@@H](CC(N)=O)C(=O)N[C@H](C(=O)NCC(=O)N[C@@H](CO)C(=O)N[C@@H](CC(=O)O)C(=O)N[C@H](C(=O)N[C@@H](Cc1ccc(O)cc1)C(N)=O)[C@@H](C)O)C(C)C)[C@@H](C)O
notes: also called compound 1
B3: N^ε1-[(4S)-4-carboxy-4-[[(4S)-4-carboxy-4-(19-carboxynonadecanoylamino)butanoyl]amino]butanoyl]-[Asp14,Arg17,Pro21,Pro27,Arg35]-h-amylin (peptide)
peptide: K([γGlu-γGlu-C20 diacid])CNTATCATQRLADFLRHSSPNFGAIPSSTNVGSRTY-NH2
modifications: disulfide 2-7; N-terminus assumed
SMILES: CC[C@H](C)[C@H](NC(=O)[C@H](C)NC(=O)CNC(=O)[C@H](Cc1ccccc1)NC(=O)[C@H](CC(N)=O)NC(=O)[C@@H]1CCCN1C(=O)[C@H](CO)NC(=O)[C@H](CO)NC(=O)[C@H](Cc1c[nH]cn1)NC(=O)[C@H](CCCNC(=N)N)NC(=O)[C@H](CC(C)C)NC(=O)[C@H](Cc1ccccc1)NC(=O)[C@H](CC(=O)O)NC(=O)[C@H](C)NC(=O)[C@H](CC(C)C)NC(=O)[C@H](CCCNC(=N)N)NC(=O)[C@H](CCC(N)=O)NC(=O)[C@@H](NC(=O)[C@H](C)NC(=O)[C@@H]1CSSC[C@H](NC(=O)[C@@H](N)CCCCNC(=O)CC[C@H](NC(=O)CC[C@H](NC(=O)CCCCCCCCCCCCCCCCCCC(=O)O)C(=O)O)C(=O)O)C(=O)N[C@@H](CC(N)=O)C(=O)N[C@@H]([C@@H](C)O)C(=O)N[C@@H](C)C(=O)N[C@@H]([C@@H](C)O)C(=O)N1)[C@@H](C)O)C(=O)N1CCC[C@H]1C(=O)N[C@@H](CO)C(=O)N[C@@H](CO)C(=O)N[C@H](C(=O)N[C@@H](CC(N)=O)C(=O)N[C@H](C(=O)NCC(=O)N[C@@H](CO)C(=O)N[C@@H](CCCNC(=N)N)C(=O)N[C@H](C(=O)N[C@@H](Cc1ccc(O)cc1)C(N)=O)[C@@H](C)O)C(C)C)[C@@H](C)O
notes: also called compound 52
B4: N^ε1-[(4S)-4-carboxy-4-(19-carboxynonadecanoylamino)butanoyl]-[Arg17,Pro21,Pro27,Lys35]-h-amylin (peptide)
peptide: K([γGlu-C20 diacid])CNTATCATQRLANFLRHSSPNFGAIPSSTNVGSKTY-NH2
modifications: disulfide 2-7; N-terminus assumed
SMILES: CC[C@H](C)[C@H](NC(=O)[C@H](C)NC(=O)CNC(=O)[C@H](Cc1ccccc1)NC(=O)[C@H](CC(N)=O)NC(=O)[C@@H]1CCCN1C(=O)[C@H](CO)NC(=O)[C@H](CO)NC(=O)[C@H](Cc1c[nH]cn1)NC(=O)[C@H](CCCNC(=N)N)NC(=O)[C@H](CC(C)C)NC(=O)[C@H](Cc1ccccc1)NC(=O)[C@H](CC(N)=O)NC(=O)[C@H](C)NC(=O)[C@H](CC(C)C)NC(=O)[C@H](CCCNC(=N)N)NC(=O)[C@H](CCC(N)=O)NC(=O)[C@@H](NC(=O)[C@H](C)NC(=O)[C@@H]1CSSC[C@H](NC(=O)[C@@H](N)CCCCNC(=O)CC[C@H](NC(=O)CCCCCCCCCCCCCCCCCCC(=O)O)C(=O)O)C(=O)N[C@@H](CC(N)=O)C(=O)N[C@@H]([C@@H](C)O)C(=O)N[C@@H](C)C(=O)N[C@@H]([C@@H](C)O)C(=O)N1)[C@@H](C)O)C(=O)N1CCC[C@H]1C(=O)N[C@@H](CO)C(=O)N[C@@H](CO)C(=O)N[C@H](C(=O)N[C@@H](CC(N)=O)C(=O)N[C@H](C(=O)NCC(=O)N[C@@H](CO)C(=O)N[C@@H](CCCCN)C(=O)N[C@H](C(=O)N[C@@H](Cc1ccc(O)cc1)C(N)=O)[C@@H](C)O)C(C)C)[C@@H](C)O
notes: also called compound 35
B5: N^ε1-[(4S)-4-carboxy-4-(19-carboxynonadecanoylamino)butanoyl]-[Arg17,Pro21,Pro27,Glu35]-h-amylin (peptide)
peptide: K([γGlu-C20 diacid])CNTATCATQRLANFLRHSSPNFGAIPSSTNVGSETY-NH2
modifications: disulfide 2-7; N-terminus assumed
SMILES: CC[C@H](C)[C@H](NC(=O)[C@H](C)NC(=O)CNC(=O)[C@H](Cc1ccccc1)NC(=O)[C@H](CC(N)=O)NC(=O)[C@@H]1CCCN1C(=O)[C@H](CO)NC(=O)[C@H](CO)NC(=O)[C@H](Cc1c[nH]cn1)NC(=O)[C@H](CCCNC(=N)N)NC(=O)[C@H](CC(C)C)NC(=O)[C@H](Cc1ccccc1)NC(=O)[C@H](CC(N)=O)NC(=O)[C@H](C)NC(=O)[C@H](CC(C)C)NC(=O)[C@H](CCCNC(=N)N)NC(=O)[C@H](CCC(N)=O)NC(=O)[C@@H](NC(=O)[C@H](C)NC(=O)[C@@H]1CSSC[C@H](NC(=O)[C@@H](N)CCCCNC(=O)CC[C@H](NC(=O)CCCCCCCCCCCCCCCCCCC(=O)O)C(=O)O)C(=O)N[C@@H](CC(N)=O)C(=O)N[C@@H]([C@@H](C)O)C(=O)N[C@@H](C)C(=O)N[C@@H]([C@@H](C)O)C(=O)N1)[C@@H](C)O)C(=O)N1CCC[C@H]1C(=O)N[C@@H](CO)C(=O)N[C@@H](CO)C(=O)N[C@H](C(=O)N[C@@H](CC(N)=O)C(=O)N[C@H](C(=O)NCC(=O)N[C@@H](CO)C(=O)N[C@@H](CCC(=O)O)C(=O)N[C@H](C(=O)N[C@@H](Cc1ccc(O)cc1)C(N)=O)[C@@H](C)O)C(C)C)[C@@H](C)O
notes: also called compound 27

Numbered stars: 1 amine (or outer) side, 2 acyl side, 3 side chain; on linkers, the order of the positions; unused ones are H or OH. Bridge positions count the residues as written; N and C are the ends. Side chains are listed from the residue outwards. Ends that are not written are not given here. * marks the point of attachment. C20 diacid = O=C(O)CCCCCCCCCCCCCCCCCCC(=O)*; γGlu = O=C(O)[C@H](CCC(=O)[*:2])N[*:1]; AEEA = NCCOCCOCC(=O)O

The experiment concerns the target T1, human calcitonin receptor (human, UniProt P30988 25-474).
T1 construct: whole, on cells; Used as cell membranes prepared from the transfected BHK cells (Assay VII), not as intact cells; also called hCTR; hCT
T1 sequence (looked up): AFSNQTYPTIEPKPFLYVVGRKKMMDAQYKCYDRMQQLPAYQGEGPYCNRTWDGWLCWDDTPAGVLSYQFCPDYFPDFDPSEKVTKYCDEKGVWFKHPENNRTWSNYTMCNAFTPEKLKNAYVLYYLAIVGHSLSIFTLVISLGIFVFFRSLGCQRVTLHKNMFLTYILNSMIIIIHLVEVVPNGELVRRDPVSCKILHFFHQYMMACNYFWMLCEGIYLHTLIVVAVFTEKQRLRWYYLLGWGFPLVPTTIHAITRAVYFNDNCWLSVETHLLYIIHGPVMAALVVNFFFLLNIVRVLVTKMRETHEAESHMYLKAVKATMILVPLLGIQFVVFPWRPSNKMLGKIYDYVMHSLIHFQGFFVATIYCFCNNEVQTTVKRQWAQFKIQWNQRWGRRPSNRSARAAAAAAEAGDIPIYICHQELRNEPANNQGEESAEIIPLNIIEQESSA
Nature of the experiment: SPA competition against 125I-calcitonin, membranes with human calcitonin receptor (Assay VII). The procedure:
Membranes were prepared in the following way; the cells were rinsed with PBS and incubated with Versene for approximately 5 min before harvesting. The cells were flushed with PBS and the cell-suspension was centrifuged for 5 min at 1000 rpm. Cells were homogenized (Ultrathurrax) in a buffer containing 20 mM Na-HEPES and 10 mM EDTA (pH 7.4) and centrifuged at 20.000 rpm for 15 min. The resulting pellet was resuspended, homogenized and centrifuged (20.000 rpm, 15 min) in a buffer containing 20 mM Na-HEPES and 0.1 mM EDTA (pH 7.4, buffer 2). The resulting pellet was resuspended in buffer 2 and protein concentration was measured (BCA protein Assay, Pierce). The homogenate was kept cold during the whole procedure. The membranes were kept at −80° C. until use. Assay was performed in a 384 well Optiplate (PerkinElmer) in a total volume of 40 ul. Membranes were mixed with SPA beads. Final concentration of membranes 35 ng/μL final and Final concentration of SPA beads was 0.05 mg/well. Test-compounds were dissolved in DMSO and further diluted in assay buffer (50 mM Hepes, pH 7.4, 1 mM CaCl2, 5 mM MgCl₂, 0.1% OA and 0.02% Tween20). […] The final mixture was incubated for 120 min with shaking at 400 rpm at 25° C. prior to centrifugation (1500 rpm, 10 min). Samples were analyzed on TopCounter™ (Packard). The […] was calculated using (one site binding competition analysis) GraphPad Prism5 as a measure of receptor affinity.
The IC50 is the point on the concentration scale where inhibition reaches its midpoint. Take B1: the IC50 is 25.3 nM.

B2: the IC50 was determined as 32.5 nM.

On to B3, for which the half-maximal inhibitory concentration (IC50) is 56.9 nM.

As to B4, the 50% inhibitory concentration (IC50) came out at 48.8 nM.

In the case of B5, the IC50 is 34.5 nM.
